Source: patent publication US20030022260A1

Target: LexA-DP-1 (pLEX(HIS).DP-1): complete bacterial LexA protein fused to DP-1 from residue 59 to 410 (bacterial; murine) (UniProt Q08639)

transcriptional activity of the E2F site reporter p4x WT CYC1 in yeast: > 6 fold
Substance: GAD-E2F-5 (pGAD.E2F-5): entire murine E2F-5 as a hybrid with the activation domain of the yeast GAL4 protein (768-881) (from UniProt P04386)
